From patent US20210347873A1 (SHANGHAI PHARMAEXPLORER, published 2021)

T1: human APRIL protein (human, UniProt O75888 105-250, limits assumed)
T1 construct: Bought protein; also called recombinant APRIL protein
T1 sequence (looked up): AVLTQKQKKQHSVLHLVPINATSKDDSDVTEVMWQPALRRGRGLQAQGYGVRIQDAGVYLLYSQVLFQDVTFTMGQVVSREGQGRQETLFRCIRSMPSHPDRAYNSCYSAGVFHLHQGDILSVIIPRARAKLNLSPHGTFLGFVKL

T2: cynomolgus BLyS (full length, arginine to histidine at position 132) on CHO-K1 cells (cynomolgus, UniProt Q9Y275 1-285 (human entry))
T2 construct: also called cyno BLyS; CHO-K1 cynoBLyS
T2 chain: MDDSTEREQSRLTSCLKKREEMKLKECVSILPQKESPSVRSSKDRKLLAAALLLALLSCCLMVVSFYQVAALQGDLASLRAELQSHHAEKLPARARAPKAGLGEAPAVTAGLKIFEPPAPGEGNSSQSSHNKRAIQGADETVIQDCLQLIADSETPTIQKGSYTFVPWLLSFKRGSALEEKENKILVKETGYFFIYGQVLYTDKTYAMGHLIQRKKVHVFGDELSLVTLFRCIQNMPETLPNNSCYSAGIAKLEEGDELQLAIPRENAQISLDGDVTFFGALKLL

B1: 111D10D6G3 (antibody, V domains shown)
VH: QVQLQQPGAELVKPGASVKMSCKASGYTFTRHWITWVKQRPGQGLEWIGDIFPGSGSINYNEKFKSEATLTVEKSSSTAYMQLSSLTSEDSAVYYCARGDVDVWGTGTTVTVSS
VL: DIQMTQSPSSLSASLGERVSLTCRASQEIRGYLSWLQQKPNGTIKRLIYAASTLDSGVPKRFSATRSGSDFSLTISSLESEDFADYYCLQYASYPFTFGSGTKLEIK
notes: Mouse hybridoma monoclonal antibody purified on Protein G
B2: 111D10D6G3 (antibody, V domains shown)
VH: QVQLQQPGAELVKPGASVKMSCKASGYTFTRHWITWVKQRPGQGLEWIGDIFPGSGSINYNEKFKSEATLTVEKSSSTAYMQLSSLTSEDSAVYYCARGDVDVWGTGTTVTVSS
VL: DIQMTQSPSSLSASLGERVSLTCRASQEIRGYLSWLQQKPNGTIKRLIYAASTLDSGVPKRFSATRSGSDFSLTISSLESEDFADYYCLQYASYPFTFGSGTKLEIK
notes: Mouse hybridoma antibody purified on Protein G
B3: 8E7D9C7F5 (antibody, V domains shown)
VH: QVQLQQSGVELARPGASVKLSCKASGYTFTSYGISWVKQRTGQALEWIGEIYPRSGNTYYNEKFKGKATLTADKSSSTAYMELRSLTSEDSAVYFCARSGPITTLVATDYGMDYWGQGTSVTVSS
VL: DIVLTQSPASLAVSLGQRATISCRASKSVSTSSYSYMHWYQQKPGQPPKLLIKFASNLESGVPARFSGSGSGTDFTLNIHPVEEEDAATYYCQHSREFPYTFGGGTKLEIK
notes: as for B1
B4: 97A3C2H4 (antibody, V domains shown)
VH: EVKLVESGGGLVQPGGSLKLSCAASGFTFSTYTMSWVRQTPEKRLEWVAYISYGGGSTSYPDTVKGRFTISRDNAKNTLYLQMSSLKSEDTAIYYCTRHVTVVENSMDYWGQGTSVTVSS
VL: DILLTQSPDILSVSPGERVSFSCRASQSIGTSIHWYQQRTNGSPRLLIKYVSESFSGTPSRFSGSGSGTAFTLTINSVESEDIADYYCQQTHSWPWTFGGGTKLEIK
notes: as for B1
B5: 97A3C2H4 (antibody, V domains shown)
VH: EVKLVESGGGLVQPGGSLKLSCAASGFTFSTYTMSWVRQTPEKRLEWVAYISYGGGSTSYPDTVKGRFTISRDNAKNTLYLQMSSLKSEDTAIYYCTRHVTVVENSMDYWGQGTSVTVSS
VL: DILLTQSPDILSVSPGERVSFSCRASQSIGTSIHWYQQRTNGSPRLLIKYVSESFSGTPSRFSGSGSGTAFTLTINSVESEDIADYYCQQTHSWPWTFGGGTKLEIK
notes: as for B2
B6: 2-1G11 (antibody, V domains shown)
VH: EVQLVESRGGVVQPGRSLRLSCAASGFTFSSYGMHWVRQAPGKGLEWVAVISYDGSNKYYADSVKGRFTISRDNSKNTLYLQMNSLRAEDAAVYYCARDRVDILTGYSIYGMDVWGQGTTVTVSS
VL: EIVMTQSPATLSLSPGERATLSCRASQSVSSYLAWYQQKPGQAPRLLIYDASKRATGIPARFSGSGSGTDFTLTISSLEPEDFAVYYCQQRSNWPLTFGGGTKVEIK
notes: From a human naive scFv phage library; also called human BLyS antibody 2-1G11
B7: L9G7 (antibody, human IgG1, V domains shown)
VH: QIQLVQSGAEVKKPGASVKVSCKASGYTFTSYGISWVRQAPGQGLEWMGWISAYNGNTNYAQKLQGRVTMTTDTSTSTAYMELRSLRSDDTAVYYCARTYYDILTGYYYYGMDVWGQGTTVTVSS
VL: EIVLTQSPGTLSLSPGERATLSCRTSQSVDTYLAWYQQKPGQAPRLLIYDASNRATGIPARFSGSGSGTDFTLTISSLEPEDFAVYYCQQRSNWPLTFGGGTKVEIK
B8: L9G7 (antibody, V domains shown)
VH: QIQLVQSGAEVKKPGASVKVSCKASGYTFTSYGISWVRQAPGQGLEWMGWISAYNGNTNYAQKLQGRVTMTTDTSTSTAYMELRSLRSDDTAVYYCARTYYDILTGYYYYGMDVWGQGTTVTVSS
VL: EIVLTQSPGTLSLSPGERATLSCRTSQSVDTYLAWYQQKPGQAPRLLIYDASNRATGIPARFSGSGSGTDFTLTISSLEPEDFAVYYCQQRSNWPLTFGGGTKVEIK
notes: From a human naive scFv phage library; also called human BLyS antibody L9G7
B9: L1D12 (antibody, V domains shown)
VH: QVQLVQSGGGLVQPGGSLRLSCAASGFTVSSNYMSWVRQAPGKGLEWVSVIYSGGSTYYADSVKGRFTISRDNSKNTLYLQMNSLRAEDTAVYYCARGFHDILTGYGMDVWGQGTTVTVSS
VL: SSELTQDPAVSVALGQTVRITCQGDSLRNYYAGWYQQKPGQAPVLVIYGKNNRPSGIPDRFSGSSSGNTASLTITGTQAEDEADYYCSSRDNSGTHLVEFGGGTKLTVL
notes: From a human naive scFv phage library; also called human BLyS antibody L1D12; LID12
B10: L1D12 (antibody, human IgG1, V domains shown)
VH: QVQLVQSGGGLVQPGGSLRLSCAASGFTVSSNYMSWVRQAPGKGLEWVSVIYSGGSTYYADSVKGRFTISRDNSKNTLYLQMNSLRAEDTAVYYCARGFHDILTGYGMDVWGQGTTVTVSS
VL: SSELTQDPAVSVALGQTVRITCQGDSLRNYYAGWYQQKPGQAPVLVIYGKNNRPSGIPDRFSGSSSGNTASLTITGTQAEDEADYYCSSRDNSGTHLVEFGGGTKLTVL
notes: also called LID12

Tests used:
human APRIL protein [1] = biological target: T1, human APRIL protein; experiment: ELISA, coated APRIL; antibody 2.67 nM
In short: (§1)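 Anti-BLyS antibodies were tested for cross-reactivity on human APRIL coated at 1.0 μg/mL in PBS overnight at 4 °C, blocked with PBS/0.05% Tween20/1% BSA at 37 °C for 2 h. Antibodies were incubated 1 h at 37 °C, then HRP secondary 1 h at 37 °C; TMB 5 min at RT, HCl stop, A450 read.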

human APRIL protein [2] = biological target: T1, human APRIL protein; experiment: ELISA, coated APRIL; antibody 0.107 nM
In short: as §1

human APRIL protein [3] = biological target: T1, human APRIL protein; experiment: ELISA, coated APRIL; antibody 0.0213 nM
In short: as §1

human APRIL protein [4] = biological target: T1, human APRIL protein; experiment: ELISA, coated APRIL; antibody 0 nM (blank)
In short: as §1

[5] = biological target: T3, human BLyS (full length, arginine to histidine at position 132) on CHO-K1 cells (human, UniProt Q9Y275 1-285); experiment: flow cytometry, CHO-K1 hBLyS cells, antibody 13.3 nM
T3 construct: also called hBLyS; CHO-K1 hBLyS
T3 sequence (Q9Y275 whole entry R130H): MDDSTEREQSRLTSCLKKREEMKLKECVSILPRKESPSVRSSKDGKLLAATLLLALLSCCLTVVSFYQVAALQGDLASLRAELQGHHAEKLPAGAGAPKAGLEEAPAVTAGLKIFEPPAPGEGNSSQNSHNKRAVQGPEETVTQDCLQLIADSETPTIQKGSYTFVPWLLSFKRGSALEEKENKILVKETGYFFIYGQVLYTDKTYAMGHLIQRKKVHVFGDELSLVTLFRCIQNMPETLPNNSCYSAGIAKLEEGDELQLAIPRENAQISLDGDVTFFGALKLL
Protocol: (§2) The medium was aspirated completely, and the cells were rinsed once with PBS buffer (purchased from Invitrogen) and then treated with cell dispersion solution (TrypLE™ Express Enzyme, purchased from Life technology) and collected. The detailed steps are as follows: the cells were rinsed once with PBS buffer, after counting, the cells were diluted to 2×10⁶ cells/ml with PBS buffer, blocked with 2% (w/w) fetal bovine serum and incubated on ice for 30 minutes. 200 μL of which per well was aliquoted into a 96-well FACS plate and centrifuged at 2000 rpm at 4° C., then each 100 μL of the lead antibodies obtained from Embodiment 1 and 2 were aliquoted into each well and incubated on ice for 1 hour. […] After centrifuged and rinsed 3 times with FACS buffer, cells were suspended with 200 μL of FACS buffer and the results were detected and analyzed by FACS (FACS Calibur, purchased from BD). It was shown in Tables 12-13 that the lead antibody could bind to human BLyS protein on the cell surface and the lead antibody could cross-react with cynomolgus BLyS. The data in the table is MFI, the average fluorescence intensity of the cell population.

[6] = biological target: T3, human BLyS (full length, arginine to …); experiment: flow cytometry, CHO-K1 hBLyS cells, antibody 2.67 nM
Protocol: as §2

[7] = biological target: T3, human BLyS (full length, arginine to …); experiment: flow cytometry, CHO-K1 hBLyS cells, antibody 66.7 nM
Protocol: as §2

[8] = biological target: T2, cynomolgus BLyS (full length, arginine …); experiment: flow cytometry, CHO-K1 cynoBLyS cells, antibody 0 nM
Protocol: as §2

[9] = biological target: T3, human BLyS (full length, arginine to …); experiment: flow cytometry, CHO-K1 hBLyS cells, antibody 0.00427 nM
Protocol: as §2

[10] = biological target: T2, cynomolgus BLyS (full length, arginine …); experiment: flow cytometry, CHO-K1 cynoBLyS cells, antibody 13.3 nM
Protocol: as §2

[11] = biological target: T2, cynomolgus BLyS (full length, arginine …); experiment: flow cytometry, CHO-K1 cynoBLyS cells, antibody 66.7 nM
Protocol: as §2

[12] = biological target: T2, cynomolgus BLyS (full length, arginine …); experiment: flow cytometry, CHO-K1 cynoBLyS cells, antibody 0.0213 nM
Protocol: as §2

[13] = biological target: T2, cynomolgus BLyS (full length, arginine …); experiment: flow cytometry, CHO-K1 cynoBLyS cells, antibody 0.00427 nM
Protocol: as §2

Molecule	OD450 nm (human APRIL protein [1])	OD450 nm (human APRIL protein [2])	OD450 nm (human APRIL protein [3])	OD450 nm (human APRIL protein [4])	MFI [5] [MFI]	MFI [6] [MFI]	MFI [7] [MFI]	MFI [8] [MFI]	MFI [9] [MFI]	MFI [10] [MFI]	MFI [11] [MFI]	MFI [12] [MFI]	MFI [13] [MFI]
hIgG Control (antibody)	0.128	0.0722	0.0804	0.0711	–	–	–	–	–	–	–	–	–
mIgG Control (antibody)	0.0558	0.0533	0.0537	0.0716	–	–	–	–	–	–	–	–	–
B1	–	–	–	–	276	265	296	20.4	41.2	524	539	108	38.8
B2	0.0583	0.0536	0.0549	0.0547	–	–	–	–	–	–	–	–	–
B3	–	–	–	–	570	532	596	19.8	67.4	1170	1170	165	74.4
B4	–	–	–	–	460	448	525	20	44	943	987	120	44.3
B5	0.0617	0.0561	0.0559	0.0566	–	–	–	–	–	–	–	–	–
B6	–	–	–	–	633	627	645	21.2	107	1450	1460	332	176
B7	0.0751	0.0861	0.0777	0.0638	–	–	–	–	–	–	–	–	–
B8	–	–	–	–	630	591	697	20.6	51.6	1280	1340	143	63.5
B9	–	–	–	–	522	503	550	21.2	54.4	1130	1180	135	66.7
B10	0.102	0.0678	0.0854	0.0625	–	–	–	–	–	–	–	–	–
